Biological target: purified SOS3 (Arabidopsis thaliana, UniProt O81223 1-222)
Assay: other fluorescence titration

purified SOS3, sequence (O81223 whole entry): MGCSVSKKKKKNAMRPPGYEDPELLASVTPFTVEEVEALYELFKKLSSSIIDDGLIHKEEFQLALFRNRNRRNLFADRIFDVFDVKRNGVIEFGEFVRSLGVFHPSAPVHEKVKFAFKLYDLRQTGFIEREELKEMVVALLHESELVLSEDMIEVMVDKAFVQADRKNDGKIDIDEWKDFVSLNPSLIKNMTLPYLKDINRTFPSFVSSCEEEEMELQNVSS

binding result: binds
Binder: KKRILEYTKYEMLNKALRAFQDLGD (peptide, UniProt Q9LKW9 460-484, looked up) [synthetic peptide spanning the S3BD of SOS1, residues K460 to D484]
